Data taken from publication PMC11838356 (bioRxiv, 2025).

Target: the molecule itself
Assay: cryo-EM structure

B1: ArnC from Salmonella enterica (ArnCSe) (enzyme, UniProt O52324 1-327, looked up)
chain: MFDAAPIKKVSVVIPVYNEQESLPELIRRTTTACESLGKAWEILLIDDGSSDSSAELMVKASQEADSHIISILLNRNYGQHAAIMAGFSHVSGDLIITLDADLQNPPEEIPRLVAKADEGFDVVGTVRQNRQDSLFRKSASKIINLLIQRTTGKAMGDYGCMLRAYRRPIIDTMLRCHERSTFIPILANIFARRATEIPVHHAEREFGDSKYSFMRLINLMYDLVTCLTTTPLRLLSLLGSVIAIGGFSLSVLLIVLRLALGPQWAAEGVFMLFAVLFTFIGAQFIGMGLLGEYIGRIYNDVRARPRYFVQQVIYPESTPFTEESHQ
stoichiometry N: 4
